Numbering of substitutions follows the chain as printed. Names may count otherwise.
B1: mNb‐WT (VHH)
VHH: DVQLVESGGGLVQPGGSLRLSCAASGRTFSSYSMGWFRQAPGKEREFVVAISKGGYKYDAVSLEGRFTISRDNAKNTVYLQINSLRPEDTAVYYCASSRAYGSSRLRLADTYEYWGQGTLVTVSS
notes: also in PDB 8IIU (crystal of the protein without label); The 6xHis-labelled form was used for the ELISA; crystals were grown from protein without label; also called model anti‐VEGF nanobody; model nanobody mNb‐WT
B2: Mutant 6 (S8A mutation) (VHH)
VHH: B1 VHH with S7A
notes: as the chain of m1 with S8A
B3: Mutant 4 (Y95F mutation) (VHH)
VHH: B1 VHH with Y94F
notes: as the chain of m1 with Y95F
B4: Mutant 3 (K44A/E45A mutation) (VHH)
VHH: B1 VHH with K43A, E44A
notes: as the chain of m1 with K44A and E45A
B5: Mutant 1 (K44A mutation) (VHH)
VHH: B1 VHH with K43A
notes: as the chain of m1 with K44A
B6: Mutant 5 (Q118N mutation) (VHH)
VHH: B1 VHH with Q117N
notes: as the chain of m1 with Q118N
B7: Mutant 7 (Q14N mutation) (VHH)
VHH: B1 VHH with Q13N
notes: as the chain of m1 with Q14N; also in PDB 8IJS (crystal of the protein without label)
B8: Mutant 2 (E45A mutation) (VHH)
VHH: B1 VHH with E44A
notes: as the chain of m1 with E45A; also in PDB 8IJZ (crystal of the protein without label)

Each binder was assayed against T1, recombinant VEGF‐A165 protein (Homo sapiens (assumed), UniProt P15692-4, strain) (assay: ELISA; VEGF‐A165 coated on high adsorption plates overnight at 4°C; blocked with 5% skim milk; linear gradient of 6xHis-labelled nanobodies, 1 h at 37°C; detected with HRP‐conjugated 6xHis tag antibody, TMB, 450 nm). Details: both partners purified.
T1 construct: also called vascular endothelial growth factor; source: bought: SinoBiological Co. Ltd. (Cat: HPLC‐11066‐HNAH)
T1 sequence (P15692 whole entry, looked up, change not shown): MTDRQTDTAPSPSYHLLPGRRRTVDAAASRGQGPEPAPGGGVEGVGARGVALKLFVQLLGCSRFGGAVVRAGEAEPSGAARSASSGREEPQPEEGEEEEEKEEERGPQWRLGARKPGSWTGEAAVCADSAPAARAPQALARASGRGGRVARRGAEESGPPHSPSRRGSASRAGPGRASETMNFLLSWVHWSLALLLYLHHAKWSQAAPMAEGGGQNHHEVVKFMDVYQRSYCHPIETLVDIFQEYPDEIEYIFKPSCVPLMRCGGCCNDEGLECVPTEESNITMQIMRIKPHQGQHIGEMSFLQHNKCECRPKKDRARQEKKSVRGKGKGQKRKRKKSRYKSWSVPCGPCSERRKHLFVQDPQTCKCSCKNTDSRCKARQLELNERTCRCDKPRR

Binding result, binds:
B1, B2, B3, B4, B5, B6, B7, B8
